Source: publication PMC12109899, “Aptamer-Based Planar Electric Double-Layer Field-Effect Transistor: A Novel Approach for Sensitive Troponin I Sensing”

Molecular target: cardiac troponin I (cTnI, TnI) (UniProt P19429 2-210)
Assay: fluorescence decrease of surface-immobilized FAM aptamer; aptamer on gold electrode; pH 7.4; 0.02x PBS stated for the chip rinse; aptamer immobilized at 24 °C for 24 h; binding temperature not given
Details: label: 3' FAM; single strand

Sequence of cardiac troponin I (cTnI, TnI) (P19429 2-210): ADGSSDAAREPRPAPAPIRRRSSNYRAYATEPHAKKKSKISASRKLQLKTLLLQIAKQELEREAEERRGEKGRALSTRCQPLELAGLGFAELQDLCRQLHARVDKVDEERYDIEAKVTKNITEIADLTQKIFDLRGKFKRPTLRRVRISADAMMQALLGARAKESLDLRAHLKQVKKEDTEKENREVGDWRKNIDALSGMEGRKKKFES

B1: Tro4 aptamer (ssDNA)
DNA: CGTGCAGTACGCCAACCTTTCTCATGCGCTGCCCCTCTTA
modifications: 5' disulfide (S-S), reduced with TCEP to thiol; immobilized on gold
binding result: binds
